From article PMC7452723, “How to measure and evaluate binding affinities” come the findings set out here.

As a reminder, the Kd is a measure of binding affinity in units of concentration.

Series [1] has as its target T1, Puf4 RNA-binding domain (Saccharomyces cerevisiae, UniProt P25339 537-888).
T1 sequence: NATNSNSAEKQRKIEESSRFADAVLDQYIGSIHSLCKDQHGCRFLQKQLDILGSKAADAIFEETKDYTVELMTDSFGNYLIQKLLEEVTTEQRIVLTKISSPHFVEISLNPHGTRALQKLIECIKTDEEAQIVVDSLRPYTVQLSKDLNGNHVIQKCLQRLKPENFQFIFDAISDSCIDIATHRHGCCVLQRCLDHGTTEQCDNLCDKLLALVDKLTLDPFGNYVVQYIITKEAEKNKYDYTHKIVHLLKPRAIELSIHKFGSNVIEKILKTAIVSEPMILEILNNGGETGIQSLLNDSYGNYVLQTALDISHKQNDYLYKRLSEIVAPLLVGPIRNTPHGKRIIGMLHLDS
Kind of series: competition EMSA; 25 C; three-fold lower Puf4; 20 mM HEPES-Na or HEPES-K pH 7.4, 2 mM MgCl2, 100 mM KOAc, 2 mM DTT, 0.2% Tween 20, 5% glycerol, 0.1 mg/ml BSA; 25 or 0 C; native 20% gel at 4-6 C. The settings on record: protein: recombinant; tags: C-terminal SNAP tag; N-terminal 6xHis removed by TEV; label: none; single strand. For orientation: A gel shift assay detects complexes by their altered migration in electrophoresis.

For series [2], the target named is T1, Puf4 RNA-binding domain. Kind of series: competition EMSA; 25 C; vs labeled Puf4_HO, 0.45 nM active Puf4; 190-210 nM across 10-110 min; 230 nM with upper limit of labeled RNA; 20 mM HEPES-Na or HEPES-K pH 7.4, 2 mM MgCl2, 100 mM KOAc, 2 mM DTT, 0.2% Tween 20, 5% glycerol, 0.1 mg/ml BSA; 25 or 0 C; native 20% gel at 4-6 C. The settings on record: protein: recombinant; tags: C-terminal SNAP tag; N-terminal 6xHis removed by TEV; label: none; single strand.

The target in series [3] is T1, Puf4 RNA-binding domain. Kind of series: EMSA; 0 C; quadratic fit; 20 mM HEPES-Na or HEPES-K pH 7.4, 2 mM MgCl2, 100 mM KOAc, 2 mM DTT, 0.2% Tween 20, 5% glycerol, 0.1 mg/ml BSA; 25 or 0 C; native 20% gel at 4-6 C. The settings on record: protein: recombinant; tags: C-terminal SNAP tag; N-terminal 6xHis removed by TEV; label: 5'-32P; single strand.
Series [4] concerns the target T1, Puf4 RNA-binding domain. Kind of series: EMSA; 25 C; quadratic fit; 20 mM HEPES-Na or HEPES-K pH 7.4, 2 mM MgCl2, 100 mM KOAc, 2 mM DTT, 0.2% Tween 20, 5% glycerol, 0.1 mg/ml BSA; 25 or 0 C; native 20% gel at 4-6 C. The settings on record: protein: recombinant; tags: C-terminal SNAP tag; N-terminal 6xHis removed by TEV; label: 5'-32P; single strand.
Series [5] has as its target T1, Puf4 RNA-binding domain. As to the kind of experiment: EMSA; 0 C; hyperbolic fit, upper limit (<=); 20 mM HEPES-Na or HEPES-K pH 7.4, 2 mM MgCl2, 100 mM KOAc, 2 mM DTT, 0.2% Tween 20, 5% glycerol, 0.1 mg/ml BSA; 25 or 0 C; native 20% gel at 4-6 C. The settings on record: protein: recombinant; tags: C-terminal SNAP tag; N-terminal 6xHis removed by TEV; label: 5'-32P; single strand.

The target in series [6] is T1, Puf4 RNA-binding domain. As to the kind of experiment: EMSA; 25 C; hyperbolic fit; active-fraction corrected; 20 mM HEPES-Na or HEPES-K pH 7.4, 2 mM MgCl2, 100 mM KOAc, 2 mM DTT, 0.2% Tween 20, 5% glycerol, 0.1 mg/ml BSA; 25 or 0 C; native 20% gel at 4-6 C. The settings on record: protein: recombinant; tags: C-terminal SNAP tag; N-terminal 6xHis removed by TEV; label: 5'-32P; single strand.

Series [7] addresses T1, Puf4 RNA-binding domain. Kind of series: EMSA kinetics (koff/kon); 25 C; kon 1.04e8 M-1s-1, koff 0.014 s-1; 20 mM HEPES-Na or HEPES-K pH 7.4, 2 mM MgCl2, 100 mM KOAc, 2 mM DTT, 0.2% Tween 20, 5% glycerol, 0.1 mg/ml BSA; 25 or 0 C; native 20% gel at 4-6 C. The settings on record: protein: recombinant; tags: C-terminal SNAP tag; N-terminal 6xHis removed by TEV; label: 5'-32P; single strand.

Series [8] has as its target T1, Puf4 RNA-binding domain. As to the kind of experiment: EMSA kinetics (koff/kon); 0 C; kon 2.85e7 M-1s-1, koff 2.92e-5 s-1; 20 mM HEPES-Na or HEPES-K pH 7.4, 2 mM MgCl2, 100 mM KOAc, 2 mM DTT, 0.2% Tween 20, 5% glycerol, 0.1 mg/ml BSA; 25 or 0 C; native 20% gel at 4-6 C. The settings on record: protein: recombinant; tags: C-terminal SNAP tag; N-terminal 6xHis removed by TEV; label: 5'-32P; single strand.

Series [9] has as its target T1, Puf4 RNA-binding domain. As to the kind of experiment: EMSA; 25 C; direct measurement parallel to competition; corrected for 75% active protein; 20 mM HEPES-Na or HEPES-K pH 7.4, 2 mM MgCl2, 100 mM KOAc, 2 mM DTT, 0.2% Tween 20, 5% glycerol, 0.1 mg/ml BSA; 25 or 0 C; native 20% gel at 4-6 C. The settings on record: protein: recombinant; tags: C-terminal SNAP tag; N-terminal 6xHis removed by TEV; label: 5'-32P; single strand.

B1: U1C mutant competitor RNA (ssRNA)
RNA: CGUAUAUUA
In the case of B1, the results for the Kd with Puf4 RNA-binding domain [1] and with Puf4 RNA-binding domain [2] were 180 nM and 204 nM, respectively.

B2: Puf4_HO RNA (ssRNA)
RNA: AUGUGUAUAUUAGU
Take B2: the dissociation constant Kd with Puf4 RNA-binding domain [3] is 0.00139 ± 9e-05 nM; with Puf4 RNA-binding domain [4], 0.12 ± 0.03 nM; in the series with Puf4 RNA-binding domain [5], < 0.0017 nM; with Puf4 RNA-binding domain [6] it was 0.12 ± 0.03 nM; with Puf4 RNA-binding domain [7], 0.13 ± 0.03 nM; in the series with Puf4 RNA-binding domain [8] it was 0.00102 ± 8e-05 nM. Also, in the series with Puf4 RNA-binding domain [9], the Kd came to 0.105 nM.
